Test results taken from the DeepSol protein solubility set.

assay: soluble on expression in E. coli; label from the status in PepcDB or PDB records

Sequence	soluble on expression in E. coli
MGSDKIHHHHHHMLTTCKSVLKLPYLEKIKVVAGEKGLNRIITWVQVVEYPEYSKWLKGGELILISGIAIKNNINSLVNFIRDINSRSLSGIVISIGPYIKEIPKEVIEIGNQLDFPIFEIPFEVKFIDVSQSICKAIFANKVNQESMENFMKDIIFRDFTFSEDILSRAVAYGYNPKTKYISFVVELHNEKDMLECDLKTKQYIEQIVIEVLGEWNKRSIHIMQYNSIILMLPKNEKRTIKNIAMNIIEEIISKAKNTSVNIGVGGEFSELRDFKISVSEAHRCLKVLKLNNDNNTVISYDELGIYKLFFQMDNLEEMKKFYLDVLKKLIDYDSKNTTELMNTLEMYIKESTNINRTAEKLFIHRNTLKYRIRRIEEITKCSLKDVNVLFNFDTALKIKKFLTMENAV	not soluble
MTDEAFAQADPEWLALIRAAREWLSGPLGQLLLEEERRVLDEELGRYFGGYLVHYGPSAQNPPVAPQVQRNVRLGAPLPGVEIVCEEQAWPLSEHAADVVVLQHGLDFCLSPHGLLREAASSVRPGGHLLIIGINPWSAWGVRHVFARDALRKARCISSSRVADWLNLLGFALEKRRFGCYRPPLASAAWQSRLAGLESLGEGRQSPGGGFYLLVARKLVVGLRPLRQVRRDPIGKLIPMPMAKVSRNTQDCS	not soluble
MAHHHHHHMSSSSSALDVPLVEVICSYPTREGLCAECPALLLLVYEHVVAELQAGRRAVDVFRGTSRQDHLSELLAVRSLSELFERLYPLSQSCILDESTASSQFWRQARVTLEAAWAAPHDAKGRALLTQVRGQPRFHFCGPRDVETPGEGYPLHPVSLERALATSKRFLRTAMTCALDGSTDALAGRQPELRAVLQLAHLVPLTPSTGAPPRKEVTPEGLSFCMVSLQQRWWILVNAALERVLLLTRAAVNGNGNTSGSSGVTKPLLWQLLAVLSVLDTTQYVFAFPERQQDLAAHHLLARLSEVGLVYPLLSNDRKCFVLSPDFLHAIHWHASAPLSLTFNHHLLRSASGVSGAGIGDLRREDTDTIITETNFRLFAYTNDADLLNILNQFAELEEIVNGNLHCYRVTRASFAAAMRKGITAAQVLRFLSLRAHPSMLRRHGEREENGDTASPSSAGGASSSFTFSASPRRGAVAGTCGSTTSIDAVSTLVVPQSFCDQMRMWESECRRVVFEHHVVLLRNMSTQQQKAVTAYLTDAGEVDAVVHAERGYMVIREEVFERLVAPLLG	not soluble
MSKADENDANLTENGVHKSRSDSEINSHTSSIHKSSSQHRRLFIDDISTIEASAGDRVWATCSGAGDATELITIHFLGDQFEESAIDVVRKHSLVMFTVPSLKVDSELEVELRFSTSNDNVTTISFKYLPRKIQRSHTQEISLFDNLLEFATNGDTISLLQPFVAQISKQDIEGNTVFHVAAKNGQSFSLKLLLSVIPPDIKNEVINVQNTHGLTALHVAIRTGDPDAVHYLMNHGAKIDISDNHGSTALHYLGDAYNESIFKEILEPSRGQRFDVNQLNSEGFAPIHVAVRRLKLSLIEMLIEAGALIDFLDTEKKRNALMHAIEMNDFETIQLLVERGSGTNIEDESGETALSLAVKNVNYPVIGLLLDNGADPNRQNSKGICLADSEDSVIQNIINGDRPELPKKEAFGVPNDLAISRSPLFGRSHPDQAPGEESGRHRVVKRSREEILNDAQTLLAETDSMAPRVSRISTSESEDEQQPGPSTSSGTRRRRSEWDRNPKLSDSVCNLDYLTRIRVAKIFDDQCKWQRLAQQLNCDHMVELISICSSGDDSSPTMILLDQFEQLEDSSISRLRDAMNQMAEDDAVKLIDSRYVY	not soluble
MLPEEHLMLRQAVILVGGLGTRLGERTKARPKPMLEIGGRPFLDTLIDELDRYQIFDEILLLAGHKAEIVETHYAGATRGRAKIVVSRETEPLGTGGALVHAAPLLDQHFLLLNGDSLFDFNLLDLIARAQGGRVHMALRDGVVGDRYGRVVLDGDIVRDFIAPGAGATGPVNAGIYVVDKSIIAEIAKLPASLEQDVFPGLVRSGELRGTAYRGYFIDIGIPDDFARADRELREKLQRPAVFFDRDGVLNHDSGYTFETHKLEWIEGAREAVKAVNDAGYFAFVITNQSGVARGYYEEHHVLALHRWMADQMALIGAHIDAFEYCPDHPDGTVARYCRISDRRKPAPGMITDLAQRFSVDMTRSMVVGDKDSDMAAAQAAGLAGHMFEGGNLEAFVKQRLKPADKGLEHHHHHH	not soluble
MVNPFIKEAKEKMKRTLEKIEDELRKMRTGKPSPAILEEIKVDYYGVPTPVNQLATISISEERTLVIKPWDKSVLSLIEKAINASDLGLNPINDGNVIRLVFPSPTTEQREKWVKKAKEIVEEGKIAIRNIRREILKKIKEDQKEGLIPEDDAKRLENEIQKLTDEFIEKLDEVFEIKKEEIMEF	soluble
MGSDKIHHHHHHMKLLSVVKIWDRGDHNAFTDLIRFDGKLYCAFREGSAHVSPDGALRILVSEDDGSSWKEAALIKLDEGDLRDARLLVWLGELYLFGARAIAGEPLQSLMWRSSDGCRWQAAEHCADTGYWLWRVIADNNEQSVSRAPALYGVAYRPGPDGDVRLYRAAPQGPLKGTDFIPLVAALNSEGYVNETGLEITDGIFTCLLRRDPVWDDRRNGLLGKAKAPFMDWQWLELDCRIGGPVVFRWCNRLLAIVRLYDEKVRTSLVEICETTGHVAEHLSLPSGGDTSYAGVVMEHSVKGDELKVSYYSSHEGKTAIYFAAIRLE	not soluble
MGSDKIHHHHHHMSNHSSSIPELSDNGIRYYQTYNESLSLWPVRCKSFYISTRFGQTHVIASGPEDAPPLVLLHGALFSSTMWYPNIADWSSKYRTYAVDIIGDKNKSIPENVSGTRTDYANWLLDVFDNLGIEKSHMIGLSLGGLHTMNFLLRMPERVKSAAILSPAETFLPFHHDFYKYALGLTASNGVETFLNWMMNDQNVLHPIFVKQFKAGVMWQDGSRNPNPNADGFPYVFTDEELRSARVPILLLLGEHEVIYDPHSALHRASSFVPDIEAEVIKNAGHVLSMEQPTYVNERVMRFFNAETGISR	not soluble
MGSDKIHHHHHHMKYLLLIPDGMADWEVEELDGRTPLEVAETENMDFLAKEGACGIAKTVPDGFEPGSDVANLTILGVDVRKHYTGRGPIEALARGVKGKLVFRCNLVKVEDGVMVDYSGGRISDEEARKVIEELNRAKPYDFVKFYAGKSYRNLLVINKDFRDDVKTFPPHDITGKEIDKHLPSGGELAELLKELMGWSAEILPEITDKANMIWPWGGGRMPSFPNFGQRYGLRGAMITEVDLLEGIARGMGMEVVQVEGITGYIDTNYRGLVRETARALEEHDFVVLHTEGIDEVGHEGDAELKVRAIELYDSKIVGKLLNKVDLDETRILLLPDHPTPVKVKTHVAEPVPFTLYGRGRDEVKVYTEKSCRRGKFGLVDGLRLMDLLIKK	not soluble
MSNISTPQPRIGFVSLGCPKNLVDSERILTELRTEGYQVVPRYDDAELVIVNTCGFIDSAVQESLEAIGEALNENGKVIVTGCLGAKENQIREVHPKVLEITGPHSYEQVLSHVHQYVPKPTHNPFTSLVPEQGVKLTPRHYAYLKISEGLEHHHHHH	soluble
MGSDKIHHHHHHMKKSLIELLEARQKATDELAEVKLKKATIEAKMKSSTIEDDDLEQLKTDAESLVSQATAIKETIAGLDSDIEETEEELSKAAKIIKEKQKGNTPMDYLKTKAAALDFVRILMDNEGSANSARKAWEANLVEKGVTNLTKILPEPVLIAIQDAFTNYNGILNHVSKDPRYAVRVALQTQVSQAKGHKAGKTKKDEDFTFLDFTINSATVYIKYAFEYSDLKKDTTGAYFNYVMKELAQGFIRTIERAVVIGDGKSNSAEDKITEIKSIAEETEANLFETQEINVAGVFDNAVLETLVAGIDKMVPNTTPILVTSKAIARKLKLVKDAEGRYIDPQPFAPIATNGNVIAGFQVYIYDWMDGATNPIIAFADQAYKMIGDEAAADRFDDYDVTVNRRHIELASVMGGRLAQYKSAVKFTNPAG	not soluble
RDRSTIARIQFRLPDGSSFTNQFPSDAPLEEARQFAAQTVGNTYGNFSLATMFPRREFTREDYKRRLLDLELAPSASVVLLPAGRPATSIVHSSSGDILMID	soluble
MEKFIDENVAFGRMPYEDEIDELVEKFDAFVVLVEDFELVYDIEELKKKVDVLHSPIPDFTAPSLSQLYKIVKWIEEKVKEGKKVYIHCYGGSGRSGTVAVAWLMYSQGLSLREGLRRVRLLKPSAVETEDQLEVLREFERFLDTR	soluble
